Publication PMC3736172 (Scientific Reports, 2013)
Like-named read-outs stand apart in the source and are kept apart here.

Experiments:
SPase = target: T1, SPase (Rhodopirellula baltica, UniProt Q7UIS9); assay: turnover to fructose and glucose-1-phosphate; type: cell-based; conditions: recombinant enzyme
T1 sequence (Q7UIS9 1-571): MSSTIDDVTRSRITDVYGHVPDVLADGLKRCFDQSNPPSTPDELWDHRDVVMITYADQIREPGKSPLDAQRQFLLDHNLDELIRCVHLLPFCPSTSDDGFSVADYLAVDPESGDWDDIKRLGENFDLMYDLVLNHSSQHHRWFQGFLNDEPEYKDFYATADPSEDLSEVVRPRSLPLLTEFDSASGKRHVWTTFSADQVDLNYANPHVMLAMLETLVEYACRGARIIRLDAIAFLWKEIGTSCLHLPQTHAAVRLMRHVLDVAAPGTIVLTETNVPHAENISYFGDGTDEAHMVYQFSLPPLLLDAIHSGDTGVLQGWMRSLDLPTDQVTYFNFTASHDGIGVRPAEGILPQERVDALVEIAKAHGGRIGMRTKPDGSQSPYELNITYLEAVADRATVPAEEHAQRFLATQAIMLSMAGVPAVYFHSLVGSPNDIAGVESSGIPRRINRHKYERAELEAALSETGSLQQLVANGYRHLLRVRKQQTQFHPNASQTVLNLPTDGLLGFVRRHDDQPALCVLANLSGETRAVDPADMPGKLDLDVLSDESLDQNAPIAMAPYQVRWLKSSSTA

SEC [1] = target: the molecule itself; assay: SEC
SEC [2] = target: the molecule itself; assay: SEC; remark: listed apart in the source

OC[C@H]1O[C@@](CO)(O[C@H]2O[C@H](CO)[C@@H](O)[C@H](O)[C@H]2O)[C@@H](O)[C@@H]1O [sucrose]
turnover to fructose and glucose-1-phosphate (SPase): it catalyzed the conversion of sucrose to fructose and glucose-1-phosphate

B1: glucosyl-3-phosphoglycerate synthase (GpgS) from Rhodopirellula baltica, recombinant 398-amino acid enzyme (enzyme)
chain: PDFYQHDMITTIHDLRSAKLDNLESMLRESTRNHDIGLVLPVTASDMRAEPFDVIVRELAQADYIASIVVSLGVAPDQSDYDETCAKIAPLGDRAKVLWTDGPEVQGLYNELIESGIDVSVPGKGRSVWTAFGYLLDDPDIETFVLHDCDIVDYDRQLLTRLCLPMVHPGLDFEFCKAYYARVTDRMHGRVVRLLVAPLLRALMQCFPENQFVRFLGNFRYPLSGEFSLTRNLARTNRVASDWGLEVGTLADVYRNTSHKRVCQVDLARLYEHKHQTLAVDQPSSGLIKMALDILTTIYRTLASQGIVFGESTFVTLRASFLRIAQDCIRQYAADARVNSLKYDRHSEEMAIEAFAQCVTQAGEIFAADPSGNPSIPNWTRVRAAFPDFTSRLRETVK
stoichiometry N (SEC [1]): 5

B2: mannosylglucosyl-3-phosphoglycerate synthase (MggA) from Rhodopirellula baltica, recombinant (enzyme)
chain: MKISAMKILIVHCHFERGGVTQVVDNHVHCLQGSDEIDEVALVSGPRQSGLQETTRSSASIWRIASLEYDSLRDTSLNVDEQAQNDKQAQHTAREIDERCRQAGWTRQETVVHWHNHSLGKNAASPLVIKHLADFGYSCLLQIHDFAEDQRPQNWAYLKQSHGCEKASELDAILYPHGDRLSYATLTTGDAETLVQFGIHRSRVDVLPNSVRLPTDELPEFEVATHKVQRAFDLPADFRWMLYPVRGIRRKNLGEFLLMCQLAGRPTIGAMTLMPDTPMEKRSYERWQAVAERCVENVVFNAAHHEDIQFVDNLSAASVVVSSSVAEGFGMVFLEPWLASRSVVARNLPGVTGDFINHGMRLEHLYDAVQIPGSHSWLTEANRQFQNAKTDAWKDVRRDVETALSPSASDQSISDANEWIDFARLTPAMQIEVLVRFNTDSGFAKEVRDRNAALCDALVTDARPEIIDYNRNIVAANFGPENQKQQLLNAYRKAISNESIPGTGVQNDQTMLELVENSRPFYPCRVEQLD
stoichiometry N (SEC [2]): 2
